This sample holds only a part of the variants without activity.
B1: TPR 5TU (parent)
chain: GGAUCUUCUCGAUCUAACAAAAAAGACAAAUCUGCCACAAAGCUUGAGAGCAUCUUCGGAUGCAGAGGCGGCAGCCUUCGGUGGCGCGAUAGCGCCAACGUUCUCAACUAUGACACGCAAAACGCGUGCUCCGUUGAAUGGAGUUUAUCAUG

Variants of: B1
Assay: polymerase ribozyme fitness, log enrichment relative to wild type (log ratio); higher = more active; in vitro selection for triplet polymerase activity
How it was run: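 Both subunits of a heterodimeric triplet polymerase ribozyme were given their own mutant library, built by PCR and transcribed. Each library was annealed with a biotinylated primer, the partner subunit and triplets, incubated frozen at −7 °C, and its extended constructs gel-excised, captured on streptavidin beads and amplified by RT-PCR, all in one round done in triplicate. Fitness is the logarithm of genotype enrichment relative to wild-type enrichment, with replicates averaged by inverse-variance weighting. That logarithm is base 2, and Illumina-sequenced genotypes needed ≥10 input reads and ≥1 read per output.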

| Variant | polymerase ribozyme fitness (log ratio) |
| --- | --- |
| GGAUCUUCUCGAUCUAACAAAAAAGACAAAUCUGCCACAAAGCUUGAGAGCAUCUUCGGAUGCAGAGGCGGCAGCCUUCGGUAGCGAGAUAGCGCCAACGUUCUCAACUAUGACACGCAAAACGCGUGCUCCGUUGAAUGGAGUUUAUCAUG | ≤ -4.2 |
| GGAUCUUCUCGAUCUAACAAAAAAGACAAAUCUGCCACAAAGCUUGAGAGCAUCUUCGGAUGCAGAGGCGGCAGCCUUCGGUAGCGCGAUAGCGCCAACGUUCGCAACUAUGACACGCAAAUCGCGUGCUCCGGUGAAUGGAGUUUAUCAUG | -3.23 |
| GGAUCUUCUCGAUCUAACAAAAAAGACAAAUCUGCCACAAAGCUUGAGAGCAUCUUCGGAUGCAGAGGCGGCAGCCUUCGGUAGCGCGAGAGCCCCAACGUUCUCAACUGUGACACGCAAAACGCGUGCUCCGUUGAAUGGAGUUUAUCAUU | ≤ -4.2 |
| GGAUCUUCUCGAUCUAACAAAAAAGACAAAUCUGCCACAAAGCUUGAGAGCAUCUUCGGAUGCAGAGGCGGCAGCCUUCGGUAGCGCGAUAGCGCUAACGUUCUCAACUAUGACACGUAAAACGCGUGCUCCGUUGAAUGGAGUUUAUCAUG | -0.697 |
| GGAUCUUCUCGAUCUAACAAAAAAGACAAAUCUGCCACAAAGCUUGAGAGCAUCUUCGGAUGCAGAGGCGGCAGCCUUCGGUAGCGCGAUAGCGCCAAUGUUCUCAACUAUGACACGCAAAACGCGUGCUCCGUUGAAUGGAAUUUUUCAUG | -3.6 |
| GGAUCUUCUCGAUCUAACAAAAAAGACAAAUCUGCCACAAAGCUUGAGAGCAUCUUCGGAUGCAGAGGCGGCAGCCUUCGGUAGCGCGAUAGCGCCAACGUUCUCAACUAUGACACGCAAAACGCGUGCUCCGUUGAAUGUAAUUUAUCAUG | ≤ -4.2 |
| GGAUCUUCUCGAUCUAACAAAAAAGACAAAUCUGCCACAAAGCUUGAGAGCAUCUUCGGAUGCAGAGGCGGCAGCCUUCGGUAGCGCGAUAGCGUCAACGUUCUCCGCUAUGACACGCAAAACGCGUGCUCCGUUGAAUGGAGUUUAUCAUG | -3.5 |
| GGAUCUUCUCGAUCUAACAAAAAAGACAAAUCUGCCACAAAGCUUGAGAGCAUCUUCGGAUGCAGAGGCGGCAGCCUUCGGUAGCGCGAUAGCGCCAAUGUUCUCAACUAUGACACGCAAAACGCGUGCUCCGUUGAAUGGAGUUUAUCAUG | -2.05 |
| GGAUCUUCUCGAUCUAACAAAAAAGACAAAUCUGCCACAAAGCUUGAGAGCAUCUUCGGAUGCAGAGGCGGCAGCCUUCGGUAGCGCGAUAGCGCCAACGUUCUCAACUAUGACACGCCAAACGCGUGCUCCGUUGGAUGGAAUUUAUCAUG | -2.54 |
| GGAUCUUCUCGAUCUAACAAAAAAGACAAAUCUGCCACAAAGCUUGAGAGCAUCUUCGGAUGCAGAGGCGGCAGCCUUCGGUCGCGCGAUAGCGCCAACGUUCUCAACUAUGACUCGCAUAACGCGUGCUCCGUUGAAUGGAGUUUAUCAUG | -1.99 |
| GGAUCUUCUCGAUCUAACAAAAAAGACAAAUCUGCCACAAAGCUUGAGAGCAUCUUCGGAUGCAGAGGCGGCAGCCUUCGGUAGCGCGAUAGCGCCAACGUUCUCAACUAUGACGCGCAAAACGCGUGCUCCGUUGAAUGGAGUUUAUCGUG | -2.88 |
| GGAUCUUCUCGAUCUAACAAAAAAGACAAAUCUGCCACAAAGCUUGAGAGCAUCUUCGGAUGCAGAGGCGGCAGCCUUCGGUAGCGCGAUAGCGCCAACGUUCUCAACUAUGACACGCAAAACGCGUGCUCCGUUGAAUGUAGUUUAUCAUG | -0.659 |
| GGAUCUUCUCGAUCUAACAAAAAAGACAAAUCUGCCACAAAGCUUGAGAGCAUCUUCGGAUGCAGAGGCGGCAGCCUUCGGUAGUGCGAUAGCGCCAACGUUCUCAACUAUGACACGCAAAACGCGUGCUCCGUUGAAUGGAGUUUAUCAUG | -1.94 |
| GGAUCUUCUCGAUCUAACAAAAAAGACAAAUCUGCCACAAAGCUUGAGAGCAUCUUCGGAUGCAGAGGCGGCAGCCUUCGGUAGCGCGAUAGCGCCAACGUUCUCAACUAUGACACCCAAAACGCGUGCUCCGUUGAAUGGAGUGUAUCAUG | -1.38 |
| GGAUCUUCUCGAUCUAACAAAAAAGACAAAUCUGCCACAAAGCUUGAGAGCAUCUUCGGAUGCAGAGGCGGCAGCCUUCGGUAGCGCGAUAGCGCCAACGUUCUCAACUAUGACACGCCAAACGCGUGCUCCGUUGAAUGGAGUUUAUCAUG | -2.44 |
| GGAUCUUCUCGAUCUAACAAAAAAGACAAAUCUGCCACAAAGCUUGAGAGCAUCUUCGGAUGCAGAGGCGGCAGCCUUCGGUAGCGCGAUAGCGCCAACGUUCUCAACUAUGACACGCAAAACGCGUGCUCCGUUGAAUGGAGUUGAUCAUG | -1.33 |
| GGAUCUUCUCGAUCUAACAAAAAAGACAAAUCUGCCACAAAGCUUGAGAGCAUCUUCGGAUGCAGAGGCGGCAGCCUUCGGUAGUGCGAUAGCGCCAACGUUCUCAACUAUGACUUGCAAAACGCGUGCUCCGUUGAAUGGAGUUUAUCAUG | -2.68 |
| GGAUCUUCUCGAUCUAACAAAAAAGACAAAUCUGCCACAAAGCUUGAGAGCAUCUUCGGAUGCAGAGGCGGCAGCCUUCGGUAGCGCGAUAGCGGCAACGUUCUCAACUAUGACACGCAAAACGCGUGCUCCGUUGAAUGGAGUUUAUCAUG | -1.23 |
| GGAUCUUCUCGAUCUAACAAAAAAGACAAAUCUGCCACAAAGCUUGAGAGCAUCUUCGGAUGCAGAGGCGGCAGCCUUCGGUAGCGCGAUAGCGUCAACGUUCUCAACUAUGACACGCAAAACGCGUGCUCCGUUGAAUGGAGUUUAUCAUG | -0.657 |

| Variant | polymerase ribozyme fitness (log ratio) |
| --- | --- |
| GGAUCUUCUCGAUCUAACAAAAAAGACAAAUCUGCCACAAAGCUUGAGAGCAUCUUCGGAUGCAGAGGCGGCAGCCUUCGGUAGCGCGAUAGCGCCAACGUUCUCAACUAUGACACGCAAAACGCGUGCUCCGUUGAAUGGGGUUUAACAUG | -4.11 |
| GGAUCUUCUCGAUCUAACAAAAAAGACAAAUCUGCCACAAAGCUUGAGAGCAUCUUCGGAUGCAGAGGCGGCAGCCUUCGGUAGCGCGAUAGCGCCAACGUUCUCAACUAUGACACGCAAAACGCGUGCUCCGUUGAAUGGAGUUUAUCAAG | -3.69 |
| GGAUCUUCUCGAUCUAACAAAAAAGACAAAUCUGCCACAAAGCUUGAGAGCAUCUUCGGAUGCAGAGGCGGCAGCCUUCGGUAGCGCUAUAGCGCCAACGUUCUCAACUAUGACACGCAAAACGAGUGCUCCGUUGAAUGGAGUUUAUCAUU | ≤ -4.2 |
| GGAUCUUCUCGAUCUAACAAAAAAGACAAAUCUGCCACAAAGCUUGAGAGCAUCUUCGGAUGCAGAGGCGGCAGCCUUCGGUAGCGCGAUAGCGCCAACGUUCUCAACUAUGAUACGCAAAACGCGUGCUCCGUUGAAUGGAGUUUAUCAUG | -2.41 |
| GGAUCUUCUCGAUCUAACAAAAAAGACAAAUCUGCCACAAAGCUUGAGAGCAUCUUCGGAUGCAGAGGCGGCAGCCUUCGGUAGCGCGAUAGCGCCAACGUUCUCAACUAUGACACGCAAAACGCGUACUCCGUUGAAUGGAGUUUAUCAUG | -3.83 |
| GGAUCUUCUCGAUCUAACAAAAAAGACAAAUCUGCCACAAAGCUUGAGAGCAUCUUCGGAUGCAGAGGCGGCAGCCUUCGGUAGCGCGAUAGCGCCAACGCUCUCAACUAUGACACGCAAAACGCGUGCUCCGUUGAAUGGAGUUUAUCAUG | -2.23 |
| GGAUCUUCUCGAUCUAACAAAAAAGACAAAUCUGCCACAAAGCUUGAGAGCAUCUUCGGAUGCAGAGGCGGCAGCCUUCGGUAGCGCGAUAGCGCCAACGGUCUCUACUAUGACACGCAAAACGCGUGCUCCGUUGAAUGGAGUCUAUCAUG | -2.55 |
| GGAUCUUCUCGAUCUAACAAAAAAGACAAAUCUGCCACAAAGCUUGAGAGCAUCUUCGGAUGCAGAGGCGGCAGCCUUCGGUCGGGCGAUAGCGCCAACGUUCUCAACUAUGACACGCAAAUCGCGUGCUCCGUUGAAUGGAGUUUAUCAUG | ≤ -4.2 |
| GGAUCUUCUCGAUCUAACAAAAAAGACAAAUCUGCCACAAAGCUUGAGAGCAUCUUCGGAUGCAGAGGCGGCAGCCUUCGGUAGCGCGAUAGCGCCAACGUCGUCAACUAUGACACGCAAAACGCGUGCUCCGUUGAAUGGAGUGUAUCAUG | ≤ -4.2 |
| GGAUCUUCUCGAUCUAACAAAAAAGACAAAUCUGCCACAAAGCUUGAGAGCAUCUUCGGAUGCAGAGGCGGCAGCCUUCGGUAGCGCGAUAGCGCCAACGUUCUAAACUAUGACACGCAAAACGCGUGCUCCGUUGAAUGGAGUUUAUCAUG | -3.15 |
| GGAUCUUCUCGAUCUAACAAAAAAGACAAAUCUGCCACAAAGCUUGAGAGCAUCUUCGGAUGCAGAGGCGGCAGCCUUCGGUAGUGCGAUAGCGCCAACGUUCUCCACUAUGACACGCAAAACGCGUGCUCGGUUGAAUAGAGUUUAUCAUG | ≤ -4.2 |
| GGAUCUUCUCGAUCUAACAAAAAAGACAAAUCUGCCACAAAGCUUGAGAGCAUCUUCGGAUGCAGAGGCGGCAGCCUUCGGUAGCGCGAUAGCGCCAACGUUCUCAACUAUGACACGCAAAACGCCUGCUCCGUUGAAUGGAGUUUAUCAUG | 0.173 |
| GGAUCUUCUCGAUCUAACAAAAAAGACAAAUCUGCCACAAAGCUUGAGAGCAUCUUCGGAUGCAGAGGCGGCAGCCUUCGGUCGCGCGAUAGCGCCAACGUUCUCAACUAUGACACGCAAUACGCGUGCUCCGUUGAAUGGAGUUUAUCAUG | 0.406 |
| GGAUCUUCUCGAUCUAACAAAAAAGACAAAUCUGCCACAAAGCUUGAGAGCAUCUUCGGAUGCAGAGGCGGCAGCCUUCGGUCGCGCGUUAGCGCCAACGUUCUCAACUAUGACACGCAAAACUCGUGCUCCGUUGAAUGGAGUUUAUCAUG | -1.35 |
| GGAUCUUCUCGAUCUAACAAAAAAGACAAAUCUGCCACAAAGCUUGAGAGCAUCUUCGGAUGCAGAGGCGGCAGCCUUCGGUAGCGCGAUAGCGCCAACGUUCUCAACUAUGACACGAAAAACGCGUGAUCCGUUGAAUGGAGUUUAUCAUG | -3.64 |
| GGAUCUUCUCGAUCUAACAAAAAAGACAAAUCUGCCACAAAGCUUGAGAGCAUCUUCGGAUGCAGAGGCGGCAGCCUUCGGUAGCGUGAUAGCGCCAACGUUCUCAACUAUGACACGCAAAAGGCGUGCUCCGUUGAAUGGGGUUUAUCAUG | -2.09 |
| GGAUCUUCUCGAUCUAACAAAAAAGACAAAUCUGCCACAAAGCUUGAGAGCAUCUUCGGAUGCAGAGGCGGCAGCCUUCGGUAGCGCGAUAGUGCCAACGUUCUCAACUAUGACACGCAAAACGCGUGCUCCGUUGAAUGGAGUUUAUCAUG | -1.36 |
| GGAUCUUCUCGAUCUAACAAAAAAGACAAAUCUGCCACAAAGCUUGAGAGCAUCUUCGGAUGCAGAGGCGGCAGCCUUCGGUAGCUCGAUAGCGCCAACGUUCUCAACUAUGACACGUAAAACGCGUGCUCCGUUGAAUGGAGUUUAUCAUG | -3.81 |
| GGAUCUUCUCGAUCUAACAAAAAAGACAAAUCUGCCACAAAGCUUGAGAGCAUCUUCGGAUGCAGAGGCGGCAGCCUUCGGUCGCGCGAUAGCGCCAACGUUCUCGACUAUGACACGCAAAACGCGUGCUCCGUUGAAUGGAGUUUAUCAUG | -0.352 |

Reference: the RNAGym collection of RNA variant scans (doi:10.1073/pnas.2313332121)
